Data as given in patent US20190389961A1 (INNATE PHARMA, published 2019).
Positions count from the first letter of the chain named. Names and notes keep the numbering of the source.

What was measured:
[1] = target: T1, human CD39 (vascular CD39, NTPDase1) expressed at the surface of cells (human, UniProt P49961 1-510); experiment: flow cytometry on Hek-293T cells expressing wild-type CD39 (panel WT); unstained (US) median 10,3; antibody concentration not shown
T1 construct: also called huCD39; CHO-huCD39
T1 sequence: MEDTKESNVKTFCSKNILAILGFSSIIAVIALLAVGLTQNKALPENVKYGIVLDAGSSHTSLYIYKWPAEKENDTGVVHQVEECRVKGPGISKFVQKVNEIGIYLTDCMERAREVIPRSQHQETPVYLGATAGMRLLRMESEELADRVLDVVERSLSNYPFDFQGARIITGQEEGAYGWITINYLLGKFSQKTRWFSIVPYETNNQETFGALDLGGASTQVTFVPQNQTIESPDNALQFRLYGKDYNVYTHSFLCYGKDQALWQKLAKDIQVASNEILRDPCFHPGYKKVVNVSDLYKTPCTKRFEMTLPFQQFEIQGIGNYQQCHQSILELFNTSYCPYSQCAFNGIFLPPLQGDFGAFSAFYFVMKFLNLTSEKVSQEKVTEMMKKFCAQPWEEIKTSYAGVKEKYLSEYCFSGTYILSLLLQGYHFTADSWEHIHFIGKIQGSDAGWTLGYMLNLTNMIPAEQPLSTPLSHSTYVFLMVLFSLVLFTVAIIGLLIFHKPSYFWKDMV
Protocol: (§1) Mutants were transfected in Hek-293T cells, as shown in the table 1, using numbering of SEQ ID NO: 1. […] Mutant 19 includes substitutions at residues R138, M139 and E142.
(§2) In order to define the epitopes of the further anti-CD39 antibodies of Example 5, they were tested for loss of binding to the panel of CD39 mutants as described in Example 1 and Table 1. Mutants were transfected in Hek-293T cells, as shown in the table 1, using numbering of SEQ ID NO: 1.Dose-ranges of test antibodies (10-2.5-0.625-0.1563-0.0391-0.0098-0.0024-0.0006 μg/ml) are tested on the 20 generated mutants by flow cytometry.

[2] = target: T2, human CD39 mutant 5 (human, UniProt P49961 1-510); experiment: flow cytometry on Hek-293T cells expressing CD39 mutant 5 (panel M5); unstained (US) median 8,98; antibody concentration not shown
T2 construct: Expressed on Hek-293T cells; also called M5
T2 chain: T1 sequence with Q96A, N99A, E143A, R147E
Protocol: as §1, §2

[3] = target: T3, recombinant human CD39-L4 (NTPDase5, ENTPD5) (human, UniProt O75356 25-428); experiment: ELISA on plate-coated recombinant huCD39 L4; the single curve has no legend on the sheet, I-394 by the legend paragraph 70
T3 construct: Genbank NP_001240 (precursor) is printed
T3 sequence: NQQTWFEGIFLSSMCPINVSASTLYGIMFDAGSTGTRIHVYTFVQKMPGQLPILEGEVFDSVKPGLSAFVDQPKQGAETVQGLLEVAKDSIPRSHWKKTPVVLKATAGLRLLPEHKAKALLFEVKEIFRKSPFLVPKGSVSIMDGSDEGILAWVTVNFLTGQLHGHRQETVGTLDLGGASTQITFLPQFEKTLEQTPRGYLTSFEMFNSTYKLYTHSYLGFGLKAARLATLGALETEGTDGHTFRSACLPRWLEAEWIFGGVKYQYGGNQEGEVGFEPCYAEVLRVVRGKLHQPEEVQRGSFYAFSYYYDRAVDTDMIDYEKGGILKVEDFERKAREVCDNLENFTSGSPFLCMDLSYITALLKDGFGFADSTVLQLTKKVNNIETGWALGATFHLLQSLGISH
Protocol: Wells were washed in TBS Tween 20, and further saturated 2H at RT in TBS Blocking buffer. Dose range concentration of primary antibody was incubated in TBS blocking buffer for 2 h at RT. Wells were washed in TBS Tween 20. […] Optical density was measured on Enspire™ at OD=450.

[4] = target: T1, human CD39 (vascular CD39, NTPDase1) …; experiment: flow cytometry titration on CHO-huCD39 cells
Protocol: Cells were incubated with various concentration of unlabeled anti-CD39 antibody from 30 μg/ml to 5×10-⁴ μg/ml, for 30 minutes at 4° C. After washes, cells were incubated with Goat anti-mouse H+L labeled secondary antibody for 30 min at 4° C.

[5] = target: T4, human CD39 mutant 15 (human, UniProt P49961 1-510); experiment: flow cytometry on Hek-293T cells expressing CD39 mutant 15 (panel M15); unstained (US) median 8,98; antibody concentration not shown
T4 construct: Expressed on Hek-293T cells; also called M15
T4 chain: T1 sequence with K87A, E100A, D107A
Protocol: as §1, §2

Median : Comp-Alexa Fluor 647-A [1]: 3720
Median : Comp-Alexa Fluor 647-A [2]: 1470
binding result [3]: no binding (tested: about 50 µg/ml)
EC50 (read off the curve) [4]: ~0.2 µg/mL
Median : Comp-Alexa Fluor 647-A [5]: 6360
B1: antibody I-394 (antibody, V domains shown)
VH: EVQLQQSGPELVKPGASVKMSCKASGYTFTDYNMHWVKQSHGRTLEWIGYIVPLNGGSTFNQKFKGRATLTVNTSSRTAYMELRSLTSEDSAAYYCARGGTRFAYWGQGTLVTVSA
VL: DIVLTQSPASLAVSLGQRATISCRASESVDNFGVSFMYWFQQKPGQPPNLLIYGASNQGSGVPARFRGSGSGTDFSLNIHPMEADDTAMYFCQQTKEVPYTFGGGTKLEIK
notes: Mouse variable regions; Produced in CHO with human IgG1 constant domains carrying L234A/L235E/G237A/A330S/P331S (Kabat EU numbering) and a human Ck constant domain
